Data taken from the supplement of paper PMC7125110.
± gives the standard error. Fewer inactive variants are shown than the library holds.

B1: glmS ribozyme (parent)
chain: AUAAAAGCGCCAGAACUACAGAAAUGUAGUUGACGAGGAGGAGGUUUAUCGAAUUUUCGGCGGAUGCCUCCAAA

Legend:
Conditions in all cases: with glucosamine-6-phosphate
glucosamine-6-phosphate [1] = variants of: B1; test: self-cleavage kobs at 40 uM GlcN6P; higher = faster cleavage; RNA array
Method in brief: (§1)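 Tracking of barcoded ribozyme variants used a hybridised Cy3 probe at 37 °C, after in situ transcription by E. coli RNA polymerase on sequenced MiSeq chips. The flowed solution held 40 μM to 10 mM glucosamine-6-phosphate in HEPES/KCl/Mg(OAc)2 buffer, and imaging ran over ~14 h. kobs was taken from exponential decay fits of normalised per-tile medians, and kcat and KM from weighted Michaelis–Menten fits.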

glucosamine-6-phosphate [2] = variants of: B1; test: self-cleavage kobs at 160 uM GlcN6P; higher = faster cleavage; RNA array
Method in brief: as §1

glucosamine-6-phosphate [3] = variants of: B1; test: self-cleavage kobs at 640 uM GlcN6P; higher = faster cleavage; RNA array
Method in brief: as §1

glucosamine-6-phosphate [4] = variants of: B1; test: self-cleavage kobs at 2500 uM GlcN6P; higher = faster cleavage; RNA array
Method in brief: as §1

glucosamine-6-phosphate [5] = variants of: B1; test: self-cleavage kobs at 10000 uM GlcN6P; higher = faster cleavage; RNA array
Method in brief: as §1

In the case of C11G U57A, the “self-cleavage kobs at 40 uM GlcN6P” value (glucosamine-6-phosphate [1]) is reported as < 1e-05 s⁻¹, the “self-cleavage kobs at 160 uM GlcN6P” value (glucosamine-6-phosphate [2]) is reported as < 1e-05 s⁻¹ and the “self-cleavage kobs at 640 uM GlcN6P” value (glucosamine-6-phosphate [3]) is reported as < 1e-05 s⁻¹.

For G60U G62C A64C, the “self-cleavage kobs at 40 uM GlcN6P” value (glucosamine-6-phosphate [1]) was < 1e-05 s⁻¹ and the “self-cleavage kobs at 640 uM GlcN6P” value (glucosamine-6-phosphate [3]) was < 1e-05 s⁻¹.

In the case of C8A C71A, the “self-cleavage kobs at 40 uM GlcN6P” value (glucosamine-6-phosphate [1]) is reported as < 1e-05 s⁻¹, the “self-cleavage kobs at 160 uM GlcN6P” value (glucosamine-6-phosphate [2]) is reported as < 1e-05 s⁻¹ and the “self-cleavage kobs at 640 uM GlcN6P” value (glucosamine-6-phosphate [3]) is reported as < 1e-05 s⁻¹. For the same variant, the “self-cleavage kobs at 2500 uM GlcN6P” value (glucosamine-6-phosphate [4]) was < 1e-05 s⁻¹ and the “self-cleavage kobs at 10000 uM GlcN6P” value (glucosamine-6-phosphate [5]) was < 1e-05 s⁻¹.

In the case of G51C, the “self-cleavage kobs at 40 uM GlcN6P” value (glucosamine-6-phosphate [1]) is reported as < 1e-05 s⁻¹, the “self-cleavage kobs at 160 uM GlcN6P” value (glucosamine-6-phosphate [2]) is reported as < 1e-05 s⁻¹ and the “self-cleavage kobs at 640 uM GlcN6P” value (glucosamine-6-phosphate [3]) is reported as < 1e-05 s⁻¹. The “self-cleavage kobs at 2500 uM GlcN6P” value (glucosamine-6-phosphate [4]) was < 1e-05 s⁻¹ and the “self-cleavage kobs at 10000 uM GlcN6P” value (glucosamine-6-phosphate [5]) was < 1e-05 s⁻¹.

A12C G43U C70A was tested, and the “self-cleavage kobs at 40 uM GlcN6P” value (glucosamine-6-phosphate [1]) was < 1e-05 s⁻¹ and the “self-cleavage kobs at 10000 uM GlcN6P” value (glucosamine-6-phosphate [5]) was < 1e-05 s⁻¹.

In the case of U2C G7C A42G U56A C61A, the “self-cleavage kobs at 40 uM GlcN6P” value (glucosamine-6-phosphate [1]) is reported as < 1e-05 s⁻¹ and the “self-cleavage kobs at 10000 uM GlcN6P” value (glucosamine-6-phosphate [5]) is reported as < 1e-05 s⁻¹.

For G37C U46G, the “self-cleavage kobs at 40 uM GlcN6P” value (glucosamine-6-phosphate [1]) was < 1e-05 s⁻¹, the “self-cleavage kobs at 160 uM GlcN6P” value (glucosamine-6-phosphate [2]) was < 1e-05 s⁻¹ and the “self-cleavage kobs at 640 uM GlcN6P” value (glucosamine-6-phosphate [3]) was < 1e-05 s⁻¹.

G38A G41A was tested, and the “self-cleavage kobs at 40 uM GlcN6P” value (glucosamine-6-phosphate [1]) was < 1e-05 s⁻¹, the “self-cleavage kobs at 160 uM GlcN6P” value (glucosamine-6-phosphate [2]) was < 1e-05 s⁻¹ and the “self-cleavage kobs at 640 uM GlcN6P” value (glucosamine-6-phosphate [3]) was < 1e-05 s⁻¹. The “self-cleavage kobs at 2500 uM GlcN6P” value (glucosamine-6-phosphate [4]) was < 1e-05 s⁻¹ and the “self-cleavage kobs at 10000 uM GlcN6P” value (glucosamine-6-phosphate [5]) was < 1e-05 s⁻¹.

With G7U G43C the “self-cleavage kobs at 40 uM GlcN6P” value (glucosamine-6-phosphate [1]) was < 1e-05 s⁻¹, the “self-cleavage kobs at 160 uM GlcN6P” value (glucosamine-6-phosphate [2]) was < 1e-05 s⁻¹ and the “self-cleavage kobs at 640 uM GlcN6P” value (glucosamine-6-phosphate [3]) was < 1e-05 s⁻¹.

U45G G60C was tested, and the “self-cleavage kobs at 40 uM GlcN6P” value (glucosamine-6-phosphate [1]) was < 1e-05 s⁻¹ and the “self-cleavage kobs at 640 uM GlcN6P” value (glucosamine-6-phosphate [3]) was < 1e-05 s⁻¹.

For A15C G41U C70A, the “self-cleavage kobs at 40 uM GlcN6P” value (glucosamine-6-phosphate [1]) was 0.000696 ± 0.00013 s⁻¹.

In the case of A14U G63A, the “self-cleavage kobs at 40 uM GlcN6P” value (glucosamine-6-phosphate [1]) is reported as < 1e-05 s⁻¹ and the “self-cleavage kobs at 640 uM GlcN6P” value (glucosamine-6-phosphate [3]) is reported as < 1e-05 s⁻¹.

In the case of U30C U49A, the “self-cleavage kobs at 40 uM GlcN6P” value (glucosamine-6-phosphate [1]) is reported as < 1e-05 s⁻¹, the “self-cleavage kobs at 160 uM GlcN6P” value (glucosamine-6-phosphate [2]) is reported as < 1e-05 s⁻¹ and the “self-cleavage kobs at 640 uM GlcN6P” value (glucosamine-6-phosphate [3]) is reported as < 1e-05 s⁻¹.

In the case of G9C G41U C50A, the “self-cleavage kobs at 40 uM GlcN6P” value (glucosamine-6-phosphate [1]) is reported as < 1e-05 s⁻¹.

With G41A U56A the “self-cleavage kobs at 40 uM GlcN6P” value (glucosamine-6-phosphate [1]) was 4.59e-05 ± 9.3e-06 s⁻¹, the “self-cleavage kobs at 160 uM GlcN6P” value (glucosamine-6-phosphate [2]) was 8.06e-05 ± 1.3e-05 s⁻¹ and the “self-cleavage kobs at 640 uM GlcN6P” value (glucosamine-6-phosphate [3]) was 0.000252 ± 2.8e-05 s⁻¹. For the same variant, the “self-cleavage kobs at 2500 uM GlcN6P” value (glucosamine-6-phosphate [4]) was 0.00173 ± 0.00036 s⁻¹ and the “self-cleavage kobs at 10000 uM GlcN6P” value (glucosamine-6-phosphate [5]) was 0.00063 ± 8.8e-05 s⁻¹.

With G43C C71A the “self-cleavage kobs at 40 uM GlcN6P” value (glucosamine-6-phosphate [1]) was < 1e-05 s⁻¹, the “self-cleavage kobs at 160 uM GlcN6P” value (glucosamine-6-phosphate [2]) was < 1e-05 s⁻¹ and the “self-cleavage kobs at 640 uM GlcN6P” value (glucosamine-6-phosphate [3]) was < 1e-05 s⁻¹. The “self-cleavage kobs at 2500 uM GlcN6P” value (glucosamine-6-phosphate [4]) was < 1e-05 s⁻¹.

In the case of U31G U45C U49G, the “self-cleavage kobs at 40 uM GlcN6P” value (glucosamine-6-phosphate [1]) is reported as < 1e-05 s⁻¹, the “self-cleavage kobs at 640 uM GlcN6P” value (glucosamine-6-phosphate [3]) is reported as < 1e-05 s⁻¹ and the “self-cleavage kobs at 10000 uM GlcN6P” value (glucosamine-6-phosphate [5]) is reported as < 1e-05 s⁻¹.

With G9A G44C the “self-cleavage kobs at 40 uM GlcN6P” value (glucosamine-6-phosphate [1]) was < 1e-05 s⁻¹, the “self-cleavage kobs at 640 uM GlcN6P” value (glucosamine-6-phosphate [3]) was < 1e-05 s⁻¹ and the “self-cleavage kobs at 2500 uM GlcN6P” value (glucosamine-6-phosphate [4]) was < 1e-05 s⁻¹.

C8A A15U U31A G41U C50U G51U G62A was tested, and the “self-cleavage kobs at 40 uM GlcN6P” value (glucosamine-6-phosphate [1]) was < 1e-05 s⁻¹, the “self-cleavage kobs at 2500 uM GlcN6P” value (glucosamine-6-phosphate [4]) was < 1e-05 s⁻¹ and the “self-cleavage kobs at 10000 uM GlcN6P” value (glucosamine-6-phosphate [5]) was < 1e-05 s⁻¹.

For A36U A42U C68U, the “self-cleavage kobs at 40 uM GlcN6P” value (glucosamine-6-phosphate [1]) was < 1e-05 s⁻¹.

U56C G63U was tested, and the “self-cleavage kobs at 40 uM GlcN6P” value (glucosamine-6-phosphate [1]) was < 1e-05 s⁻¹, the “self-cleavage kobs at 160 uM GlcN6P” value (glucosamine-6-phosphate [2]) was < 1e-05 s⁻¹ and the “self-cleavage kobs at 10000 uM GlcN6P” value (glucosamine-6-phosphate [5]) was < 1e-05 s⁻¹.

With G9A A64C the “self-cleavage kobs at 40 uM GlcN6P” value (glucosamine-6-phosphate [1]) was < 1e-05 s⁻¹, the “self-cleavage kobs at 160 uM GlcN6P” value (glucosamine-6-phosphate [2]) was < 1e-05 s⁻¹ and the “self-cleavage kobs at 640 uM GlcN6P” value (glucosamine-6-phosphate [3]) was < 1e-05 s⁻¹. The “self-cleavage kobs at 2500 uM GlcN6P” value (glucosamine-6-phosphate [4]) was < 1e-05 s⁻¹.
